Experimental data taken from article PMC11262565.

Target: biotinylated human IgG1 Fc protein (IG1-H8213, ACROBiosystems) (human)
Experiment: BLI

| Kd | Substance |
| --- | --- |
| 7.8 nM | Fc-ARM A-Z (HER2-specific affibody Z_(HER2:342) fused to a single Z domain) (designed binder) |
| 0.28 nM | Fc-ARM A-ZZ (HER2-specific affibody Z_(HER2:342) fused to double Z domains) (designed binder) |
